Several values for one entry are separate records, joined by “and”; a condition that tells them apart may be missing. Identical values can stand only once.

The target of experiment [1] is T1, recombinant human tau protein, isoform 2N4R (Tau-441) (human, UniProt P10636-8 1-441).
T1 construct: Bought
In words: SPR, sdAb stored at 4 C, 34 days after IMAC purification.

The target in experiment [2] is hyperphosphorylated tau (tau-p; University of Victoria). In words: SPR (Biacore T200), sdAb over immobilized antigen, steady state fit. The protocol:
(§1) Surface Plasmon Resonance (SPR): All binding assays for Tau15 and Tau81 were carried out at 25° C. on a Biacore™ T200 instrument (GE Healthcare). […] The running buffer for all SPR experiments was HBS-EP+ (10 mM HEPES, 150 mM NaCl, 3 mM EDTA, pH 7.4, 0.05% surfactant P20; GE Healthcare). The sdAb were injected at 20 μL/min for 3 min with a dissociation time of 7 min for the test run, and at 20 μL/min for 2 min with a dissociation time of 6 min for the steady state analysis. Data was analyzed using the Biacore T200 evaluations software Version 2.0.
(§2) The KD value for the interaction between Tau15 and Tau81 sdAb and immobilized tau were derived by fitting the data to a steady state model and are reported in Table 1. […] Size exclusion chromatograms (FIG. 4) confirmed that Tau15 and Tau81 were monomeric.

Experiment [3] has as its target T1, recombinant human tau protein, isoform …. Described as above. On the procedure: as §1, §2
The target is the same in experiment [4]. Kind of experiment: SPR, sdAb stored at 4 C, 42 days after IMAC purification. For orientation: SPR reads the build-up and loss of mass on a sensor chip optically.
Experiment [5] shares this target. In words: SPR (Biacore 3000), over immobilized Tau-441, duplicate injection. On the procedure:
(§3) Surface Plasmon Resonance (SPR): All binding assays for DH-Tau15 and Fc-Tau15 were carried out at 25° C. on a Biacore™ 3000 instrument (GE Healthcare). […] The running buffer for all SPR experiments was HBS-EP+ (10 mM HEPES, 150 mM NaCl, 3 mM EDTA, pH 7.4, 0.05% surfactant P20; GE Healthcare). The antibodies were injected at 20 μL/min for 2 min with a dissociation time of 30 min. Data was analyzed using the Biacore 3000 BIAevaluations software Version 4.1.

For experiment [6] the target is unchanged. In words: SPR, sdAb stored at 4 C, 30 days after IMAC purification.
For experiment [7] the target is unchanged. In words: SPR, sdAb stored at 4 C, 55 days after IMAC purification.
Experiment [8] has the same target. Kind of experiment: SPR (Biacore 3000), over immobilized Tau-441. On the procedure: as §3

T1 sequence (P10636 other isoform, or with tags, fused parts or gaps limits assumed): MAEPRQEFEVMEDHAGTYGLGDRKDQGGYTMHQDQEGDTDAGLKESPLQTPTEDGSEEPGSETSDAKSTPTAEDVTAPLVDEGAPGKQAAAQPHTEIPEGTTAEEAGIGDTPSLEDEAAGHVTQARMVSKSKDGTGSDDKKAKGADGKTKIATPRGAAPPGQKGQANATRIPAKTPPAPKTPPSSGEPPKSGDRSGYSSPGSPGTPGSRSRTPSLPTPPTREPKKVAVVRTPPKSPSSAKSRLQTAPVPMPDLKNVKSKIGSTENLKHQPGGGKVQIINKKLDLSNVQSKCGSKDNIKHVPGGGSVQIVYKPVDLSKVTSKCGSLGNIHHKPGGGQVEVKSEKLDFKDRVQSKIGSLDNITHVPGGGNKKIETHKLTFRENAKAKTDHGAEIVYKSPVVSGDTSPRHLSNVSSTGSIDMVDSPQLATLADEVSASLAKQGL

B1: Tau15 (VHH)
VHH: QVKLEESGGGLVQPGGSLRLSCAASGFTFSNFAMTWVRQSPGKGLEWVSAIDNDGGRTSYSDSVKGRFTISRDNAKNTLYLQMNSLKPEDTAMYYCAAMNLATRKWELWGQGTQVTVSS
notes: Llama single-domain antibody with VH (not VHH) hallmark residues in FR2; monomeric by SEC; expressed in E. coli periplasm; also called 3Tau15; sdAb Tau15; not shown: C-terminal cmyc and His6 tags (pSJF2H vector); OmpA leader removed on secretion
With B1, the equilibrium dissociation constant (Kd) in experiment [1] is 820 nM; in experiment [2], 622 nM; in experiment [3] it was 699 nM; in experiment [4] it was 534 nM; in experiment [6] it was 605 nM; in experiment [7], 590 nM. The koff in experiment [5] is 0.0632 s⁻¹ and 0.0667 s⁻¹.

B2: dimeric human hinge Tau15 (DH-Tau15) (VHH)
VHH: QVKLEESGGGLVQPGGSLRLSCAASGFTFSNFAMTWVRQSPGKGLEWVSAIDNDGGRTSYSDSVKGRFTISRDNAKNTLYLQMNSLKPEDTAMYYCAAMNLATRKWELWGQGTQVTVSS
notes: dimer through the hinge; also called dimeric hinge Tau15; hinge dimer
For B2, the “fold slower off rate than monomeric Tau15” value in experiment [8] is roughly 1000 fold. Further, in experiment [5], the koff is 4.27e-05 s⁻¹ and 3.45e-05 s⁻¹.

B3: Tau81 (VHH)
VHH: QVQLVESGGGLVQPGGSLKLSCAASGFTGDHYAMSWVRQAPGKGLEWVSTIYSYSPNTYYVDSVKDRFTISLDNAKNTLYLQMNSLKPEDTAVYYCAADLEVAEYYAYWGQGTQVTVSS
notes: Llama single-domain antibody with VH hallmark residues in FR2; mainly monomeric by SEC; also called 7Tau81; sdAb Tau81; not shown: C-terminal cmyc and His6 tags (pSJF2H vector); OmpA leader removed on secretion
Consider B3, for which the Kd was 175 nM in experiment [1]; 745 nM in experiment [2]; 820 nM in experiment [3]; 660 nM in experiment [4]; 105 nM in experiment [6]; 507 nM in experiment [7].

The Kd is a measure of binding affinity in units of concentration. The koff is the rate constant with which the complex falls apart.

The record behind these values is US20170296680A1 (NATIONAL RESEARCH COUNCIL OF CANADA, published 2017).
